Data: the nanobody polyreactivity screen of Harvey et al. (2022)

Assay: yeast display, Sf9 membrane polyspecificity reagent, FACS + sequencing; frameworks hold sequencing errors
How it was run: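 Galactose-induced (36–48 hours) yeast carrying a synthetic nanobody display library were exposed to 10% biotinylated, detergent-solubilized Sf9 membrane reagent at 4 °C for 1 hour. FACS followed streptavidin microbead enrichment, using low and high (top ~1%) gates for expression (anti-HA) and reagent binding (streptavidin). Colony PCR, MiSeq 2 × 250 sequencing and CDR-length filtering followed. Labels for polyreactivity reflect the gate of origin.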

Row | Sequence | polyreactivity (PSR sort gate)
1 | QVQLVESGGGLVQAGGSLRLSCAASGSIFYVYAMGWYRQAPGKERELVAAISSSAGSTYYADSVKGRFTISRDNAKNTVYLQMNSLKPEDTAVYYCAAKVRYSLRKYYYWGQGTQVTVSS | high polyreactivity
2 | QVQLVESGGGLVQAGGSLRLSCAASGSIFYVYAMGWYRQAPGKERELVAAITARVTSTYYADSVKGRFTISRDNAKNTVYLQMNRLKPEDTADYYCAARTSYKTGYRKYDYWGQGTQVTVSS | low polyreactivity
3 | QVQLVESGGGLVQAGGSLRLSCAASGSIFYVYAMGWYRQAPGKERELVAAITNYADSVKGRFTISRDNAKNTVYLQMNSLKPEDTAVYYCAADWWRVEMDYWGQGTEVTVSS | low polyreactivity
4 | QVQLVESGGGLVQAGGSLRLSCAASGSIFYVYAMGWYRQAPGKERELVAAITSGGSTNYADSVKGRFTISRDNAKNTVYLQMNSLKPEDTAVYYCAAAWENIWVWQEYIEYDYWGQGTQVTVSS | low polyreactivity
5 | QVQLVESGGGLVQAGGSLRLSCAASGSIFYVYAMGWYSQARGKEMELVAAISSSAGSTYYADSVKVRFTISRDNAKTTVYLQINSLIPEDTAVDYCAAKVRYSLRKYYYWGQGTQVTVSS | high polyreactivity
6 | QVQLVESGGGLVQAGGSLRLSCAASGSIFYVYTMGWYRQAPGKERELVAAISSSAGSTYYADSVKGRFTISRDNAKNTVYLQMNSLKQEDTAVYYCAAKVRYSLRKYYYWGQGTQVTVSS | high polyreactivity
7 | QVQLVESGGGLVQAGGSLRLSCAASGSIFYWNAMGWYRQAPGKERELVAAIDYSDGSTYYADSVKGRFTISRDNAKNTVYLQMNSLKPEDTAVYYCAAEWYYDLYDYWGQGTQVTVSS | high polyreactivity
8 | QVQLVESGGGLVQAGGSLRLSCAASGSIFYWYAIGWYRQAPGKETELVAAISSGGSTNYADSVKGRFTISRDNAKNTVYLQMNSLKPEDTAVYYCNADIRSFYWEYYTGLDSWGQGTQVTVSS | low polyreactivity
9 | QVQLVESGGGLVQAGGSLRLSCAASGSIFYWYALGWYRQAPGKERELVADITTSDGRTYYADSVKGRFTISRDNAKNTVNLQMNSLKPEDTAVYYCAADPFSGYGFQYYRGLYYWGQGTQVSVSS | low polyreactivity
10 | QVQLVESGGGLVQAGGSLRLSCAASGSIFYWYAMGWYRQAPGKERELVAAISSGGSTNYADSVKGRFTISRDNAKNTVYLQMNSLKPEDTAVYYCNADIRSFYWEYYTGLDSWGQVTQVTVSS | low polyreactivity
11 | QVQLVESGGGLVQAGGSLRLSCAASGSIFYWYAMGWYRQAPGKERELVAAITRSAGTTYYADSVKGRITISRDNAKNTVYLQMNSLKPEDTAVYYCAATYPRPYGSRPRYEYWGQGTQVTVSS | high polyreactivity
12 | QVQLVESGGGLVQAGGSLRLSCAASGSIFYYNAMGWSRQAPGKERELVAGIRRSGDSTYYADSVKGRFTISRDNAKNTVYLQMNSLKPEDTAVYYCAAYLYLEYYYWGQGTQVTVSS | low polyreactivity
13 | QVQLVESGGGLVQAGGSLRLSCAASGSIFYYNAMGWYRQAPGKERELVAAISSSGGSTYYADSVKGRFTISRDNAKNTVYLQMNSLKPEDTAVYYCAAKLRHWAHHTKYDYWGQGTQVSVSS | low polyreactivity
14 | QVQLVESGGGLVQAGGSLRLSCAASGSIFYYNAMGWYRQAPGKERELVAAMSWSGGSTYDADSVKGRFTISRDNAKHTVYLQMNSLKPEDTAVYYCRYYRRDEMDYWGQGTQVTVSS | high polyreactivity
15 | QVQLVESGGGLVQAGGSLRLSCAASGSIFYYNAMGWYRQAPGKERELVATITQSGGGRTYYADSVKGRFTISRDNAKNTVYLQMNSLKPEDTAVYYCAAKPDKYKSYRYGYWGQGTQVTVSS | low polyreactivity
16 | QVQLVESGGGLVQAGGSLRLSCAASGSIFYYNAMGWYRQAPGQERELVAGINYSGGSTYYADSVKGRFTISRDNAKNTVYLQMNSLIPEDTADYYCAARPRYLNARKYYYWGLGTQVTVSS | high polyreactivity
17 | QVQLVESGGGLVQAGGSLRLSCAASGSIFYYNTMGWYRQAPGKEREFVADISVIGGSTYYADSVKGRFTISRDNAKNTVYLQMNSLKPEDTAVYYCAARRYLRPHGLYGYWGQGSQVTVSS | low polyreactivity
18 | QVQLVESGGGLVQAGGSLRLSCAASGSIFYYNVMGWYRQAPGKETELVAAISQSGVRTYYADSVKGRFTISRDNAKNTVYLQMNSLKPEDTAVYYCAAKARRLYASSYDYWGQGTQVTVSS | high polyreactivity
19 | QVQLVESGGGLVQAGGSLRLSCAASGSIFYYYAAMGWYRQAPGKERELVAAIDSSDGTTYYADSVKGRFTISRDNAKNTVYLQMNSLKPEDTAVYYCAAETVQEFEYWGQGTQVTVSS | high polyreactivity
20 | QVQLVESGGGLVQAGGSLRLSCAASGSIFYYYAMGWSRQAPGKERELVAAITWRGGRTYYADSVKGRFTISRDNAKNTVYLQMNSLKPEDTAVYYCAADSRYYQYIYIHGYDYWGQGTQVTVSS | high polyreactivity
21 | QVQLVESGGGLVQAGGSLRLSCAASGSIFYYYAMGWYRQAPGKEMELVAAIDSGGSTYYAHSVKGRFTISRDNAKNTVYLQMNSLKPEDTAVYYCAADTYWFVYYGYDYWGQGTQVTVSS | low polyreactivity
22 | QVQLVESGGGLVQAGGSLRLSCAASGSIFYYYAMGWYRQAPGKEREFVAAIRESGGSTYYADSVKGRFTISRDNAKNTVYLQMNSLKPEDTAVYYCAVRRPRRNYNYPYDYCGQGTQVTVSS | low polyreactivity

Row | Sequence | polyreactivity (PSR sort gate)
23 | QVQLVESGGGLVQAGGSLRLSCAASGSIFYYYAMGWYRQAPGKERELVAAISDDAITYYADSVKGRFTISRDNAKNTVYLQMNSLKPEDTAVYYCAAELYYPVGFDYWGQGTQVTVSS | high polyreactivity
24 | QVQLVESGGGLVQAGGSLRLSCAASGSIFYYYAMGWYRQAPGKERELVAAISSGGSTNYADSVKGRFTISRDYAKNTVYLQMNSLKPEDTAVYYCAADYRAQYVVWYTYDYWGQGTQVTVSS | low polyreactivity
25 | QVQLVESGGGLVQAGGSLRLSCAASGSIFYYYAMGWYRQAPGKERELVAAITYDAGSTYYADSVKGRFTISRDNAKNTVYLQMNSLKPEDTAVYYCATDGIYHWGVYTPYDYWGQGTQVTVSS | low polyreactivity
26 | QVQLVESGGGLVQAGGSLRLSCAASGSIFYYYAMGWYRQAPGKERELVASITSGGRTYYADSVKGRFTISRDNAKNTVYFQMNSLKPEDTAVYYCAAVYGGLTLTRNYYWGQGTQVTVSS | high polyreactivity
27 | QVQLVESGGGLVQAGGSLRLSCAASGSIFYYYGMGWYRQAPGKERELVAGISSRGGRTYYADSVKGRFTISRDNAKNTVYLQMNSLKPEDTAVYYCAADRYYYAYRYYPSGYWGQGTQVTVSS | low polyreactivity
28 | QVQLVESGGGLVQAGGSLRLSCAASGSIFYYYTMGWDRQAPGKERELVADITYRGGSTYYADSVKGRFTISRDNAKNTVYLLMNSLKPEDTAVNFCAAASLVRGGHFDYWGQGTQVTVSS | high polyreactivity
29 | QVQLVESGGGLVQAGGSLRLSCAASGSIFYYYVMGWYRQAPGKERELVAAIRSSGTSTYYADSVKGRFTISRDNAKNTVYLQMNSLKPEDTAVYYCNRARSSSRYDYWGQGTQVTVSS | low polyreactivity
30 | QVQLVESGGGLVQAGGSLRLSCAASGSIFYYYVMGWYRQAPGKERELVAAITYSGGRTYYADSVKGRFTISRDNAKYTVYLQMNSLKPEDTAVYYCNVVIYYFNSRSVFYDYDYWGQGTQVTVSS | high polyreactivity
31 | QVQLVESGGGLVQAGGSLRLSCAASGSIIDWNAMGWYRQAPGKERELVAVISWGGGSTYADSVKGRFTISRDNAKNTVYLQMNSLKPEDTAVYNCNKEPIYYPVSDYDYWGQGTQVTVSS | low polyreactivity
32 | QVQLVESGGGLVQAGGSLRLSCAASGSIIGIYALGWYRQAPGKERELVAAISWSGGSTYYADSVKGRFTISRDNAKNTVYLQMNSLKPEDTAVYYCAARGHYQYYWGQGTQVTVSS | low polyreactivity
33 | QVQLVESGGGLVQAGGSLRLSCAASGSIIGLYVMGWYRQAPGKERELVAAISWSGGSTYYADSVKGRFTISRDNAKNTVYLQMNSLKPEDTAVYYCAARVYSVADYYYWGQGTQVTVSS | low polyreactivity
34 | QVQLVESGGGLVQAGGSLRLSCAASGSIIGRNAMGWYRQAPGKERELVAAISTRGGRTYYADSVKGRFTISRDNAKNTVYLQMNSLKPEDTAVYYCAATYQYLKSGYYWGQGTQVTVSS | high polyreactivity
35 | QVQLVESGGGLVQAGGSLRLSCAASGSIIGYYAMGWYRQARGKERELVAAISSSGASTYYADSVKGRFTISRDNAKYTVYLQMNSLKPEDTAVYYCNAARRYPTRGGYWGQGTQVTVSS | high polyreactivity
36 | QVQLVESGGGLVQAGGSLRLSCAASGSIIHDNAMGWYRQAPGKERELVAAINRGGSTHYADSVKGRFTISRDNAKNTVYLQMNSLKPEDTAVYYCAADGIRPEVGYWGQGTQVTVSS | low polyreactivity
37 | QVQLVESGGGLVQAGGSLRLSCAASGSIIKPYAMGWYRQAPGKERELVAAIRSSGGRTNYADSVKGRFTISRDNAKNTVYLQMNSLKPEDTAVYYCAKRYYGRKYYYWGQGTHVTVSS | high polyreactivity
38 | QVQLVESGGGLVQAGGSLRLSCAASGSIIKRNAMGWYRQAPGKERELVASISSGGSTKYADSVKGRFTISRDNAKNTVYLQKNSLKPEDTAVSYCAKRSSQTRRAYDYGGQGTQVTVSS | low polyreactivity
39 | QVQLVESGGGLVQAGGSLRLSCAASGSIILRYAMGWYRQATGKERELVAAISNRGGSTYYADSVKGRFTISRDNAKNTVYLQMNSLKPEDTAVYYCAVRSTNERSAGKRRYYYWGQGTQVTVSS | high polyreactivity
40 | QVQLVESGGGLVQAGGSLRLSCAASGSIIQGYVMGWYRQAPGKERELVAAISNSGSSTYYADSVKGRFTISRDNAKNTVYIQMNSLKPEDTAVYYCAVLRSYRGYKYGYWGQGTQVTVSS | high polyreactivity
41 | QVQLVESGGGLVQAGGSLRLSCAASGSIIRAYAMGWYRQAPGKERELVAAITIGDSTYYADSVKGRFTISRDNAKNTVYLQMNSLKPEDTAVYYCAAKSQHLYTRRFNYWGQGTQVTVSS | low polyreactivity
42 | QVQLVESGGGLVQAGGSLRLSCAASGSIIRGNAMGWYSQAPGKERELVATITNGGSTNYADSVKGRFTISRDNAKNTVYFQMNSMKPEDTAVYYCNADHSYHIASTRHVDFWGQGTQVTVSS | low polyreactivity
43 | QVQLVESGGGLVQAGGSLRLSCAASGSIIRRYAMGWYRQAPGKERELVAAISSNGGSTYYADSVKGRFTISRDNAKNTVYLQMNSLKPEDTAVYYCNKLSSYVVARRTTEYDYWGQGTQVTVSS | high polyreactivity
